The results in this text go back to US20210063414A1, “METHODS FOR PREVENTING AND/OR TREATING BONE LOSS CONDITIONS BY MODULATING IRISIN” (Dana-Farber Cancer Institute, Inc., priority 2018, published 2021).

What all share (assay): Crosslinking/co-immunoprecipitation/mass spectrometry (TMT quantitative proteomics) to identify irisin receptors
What all share (type): binding

The target in test [1] is T1, MLO-Y4 cell surface proteins (Mus musculus, UniProt Q9WTP6).
T1 construct: endogenous in cells; host or cells: MLO-Y4
The following applies: co-precipitated protein Ak2 (KAD2_MOUSE). Summed up: (§1)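 Mouse MLO-Y4 cells were switched to serum-free FreeStyle medium for 4 h, chilled, then exposed to 10 nM His-tagged irisin (or adipsin as control) for 20 min. Cells were crosslinked with 1.5 mM DTSSP (30 min, ice), and bound proteins were pulled down on Ni-NTA and eluted with 250 mM imidazole. Eluates were separated by SDS-PAGE, trypsin-digested in gel, TMT 6-plex labelled and quantified by MS3-based LC-MS/MS on an Orbitrap Fusion Lumos.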

Test [2] has as its target T2, MLO-Y4 cell surface proteins (Mus musculus, UniProt G3X9C2).
T2 construct: endogenous in cells; host or cells: MLO-Y4
T2 sequence (G3X9C2 1-266): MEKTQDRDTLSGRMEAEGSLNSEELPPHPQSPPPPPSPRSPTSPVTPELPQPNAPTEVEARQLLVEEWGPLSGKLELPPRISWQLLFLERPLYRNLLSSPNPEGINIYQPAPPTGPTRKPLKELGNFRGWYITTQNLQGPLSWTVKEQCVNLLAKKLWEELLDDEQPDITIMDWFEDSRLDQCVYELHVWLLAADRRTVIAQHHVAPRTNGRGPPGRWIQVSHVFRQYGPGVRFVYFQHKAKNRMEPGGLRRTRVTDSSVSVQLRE
Conditions: co-precipitated protein Nccrp1 (FBX50_MOUSE). Summed up: as §1

Test [3] deals with T3, MLO-Y4 cell surface proteins (Mus musculus, UniProt E9Q557).
T3 construct: endogenous in cells; host or cells: MLO-Y4
T3 sequence (E9Q557 whole entry): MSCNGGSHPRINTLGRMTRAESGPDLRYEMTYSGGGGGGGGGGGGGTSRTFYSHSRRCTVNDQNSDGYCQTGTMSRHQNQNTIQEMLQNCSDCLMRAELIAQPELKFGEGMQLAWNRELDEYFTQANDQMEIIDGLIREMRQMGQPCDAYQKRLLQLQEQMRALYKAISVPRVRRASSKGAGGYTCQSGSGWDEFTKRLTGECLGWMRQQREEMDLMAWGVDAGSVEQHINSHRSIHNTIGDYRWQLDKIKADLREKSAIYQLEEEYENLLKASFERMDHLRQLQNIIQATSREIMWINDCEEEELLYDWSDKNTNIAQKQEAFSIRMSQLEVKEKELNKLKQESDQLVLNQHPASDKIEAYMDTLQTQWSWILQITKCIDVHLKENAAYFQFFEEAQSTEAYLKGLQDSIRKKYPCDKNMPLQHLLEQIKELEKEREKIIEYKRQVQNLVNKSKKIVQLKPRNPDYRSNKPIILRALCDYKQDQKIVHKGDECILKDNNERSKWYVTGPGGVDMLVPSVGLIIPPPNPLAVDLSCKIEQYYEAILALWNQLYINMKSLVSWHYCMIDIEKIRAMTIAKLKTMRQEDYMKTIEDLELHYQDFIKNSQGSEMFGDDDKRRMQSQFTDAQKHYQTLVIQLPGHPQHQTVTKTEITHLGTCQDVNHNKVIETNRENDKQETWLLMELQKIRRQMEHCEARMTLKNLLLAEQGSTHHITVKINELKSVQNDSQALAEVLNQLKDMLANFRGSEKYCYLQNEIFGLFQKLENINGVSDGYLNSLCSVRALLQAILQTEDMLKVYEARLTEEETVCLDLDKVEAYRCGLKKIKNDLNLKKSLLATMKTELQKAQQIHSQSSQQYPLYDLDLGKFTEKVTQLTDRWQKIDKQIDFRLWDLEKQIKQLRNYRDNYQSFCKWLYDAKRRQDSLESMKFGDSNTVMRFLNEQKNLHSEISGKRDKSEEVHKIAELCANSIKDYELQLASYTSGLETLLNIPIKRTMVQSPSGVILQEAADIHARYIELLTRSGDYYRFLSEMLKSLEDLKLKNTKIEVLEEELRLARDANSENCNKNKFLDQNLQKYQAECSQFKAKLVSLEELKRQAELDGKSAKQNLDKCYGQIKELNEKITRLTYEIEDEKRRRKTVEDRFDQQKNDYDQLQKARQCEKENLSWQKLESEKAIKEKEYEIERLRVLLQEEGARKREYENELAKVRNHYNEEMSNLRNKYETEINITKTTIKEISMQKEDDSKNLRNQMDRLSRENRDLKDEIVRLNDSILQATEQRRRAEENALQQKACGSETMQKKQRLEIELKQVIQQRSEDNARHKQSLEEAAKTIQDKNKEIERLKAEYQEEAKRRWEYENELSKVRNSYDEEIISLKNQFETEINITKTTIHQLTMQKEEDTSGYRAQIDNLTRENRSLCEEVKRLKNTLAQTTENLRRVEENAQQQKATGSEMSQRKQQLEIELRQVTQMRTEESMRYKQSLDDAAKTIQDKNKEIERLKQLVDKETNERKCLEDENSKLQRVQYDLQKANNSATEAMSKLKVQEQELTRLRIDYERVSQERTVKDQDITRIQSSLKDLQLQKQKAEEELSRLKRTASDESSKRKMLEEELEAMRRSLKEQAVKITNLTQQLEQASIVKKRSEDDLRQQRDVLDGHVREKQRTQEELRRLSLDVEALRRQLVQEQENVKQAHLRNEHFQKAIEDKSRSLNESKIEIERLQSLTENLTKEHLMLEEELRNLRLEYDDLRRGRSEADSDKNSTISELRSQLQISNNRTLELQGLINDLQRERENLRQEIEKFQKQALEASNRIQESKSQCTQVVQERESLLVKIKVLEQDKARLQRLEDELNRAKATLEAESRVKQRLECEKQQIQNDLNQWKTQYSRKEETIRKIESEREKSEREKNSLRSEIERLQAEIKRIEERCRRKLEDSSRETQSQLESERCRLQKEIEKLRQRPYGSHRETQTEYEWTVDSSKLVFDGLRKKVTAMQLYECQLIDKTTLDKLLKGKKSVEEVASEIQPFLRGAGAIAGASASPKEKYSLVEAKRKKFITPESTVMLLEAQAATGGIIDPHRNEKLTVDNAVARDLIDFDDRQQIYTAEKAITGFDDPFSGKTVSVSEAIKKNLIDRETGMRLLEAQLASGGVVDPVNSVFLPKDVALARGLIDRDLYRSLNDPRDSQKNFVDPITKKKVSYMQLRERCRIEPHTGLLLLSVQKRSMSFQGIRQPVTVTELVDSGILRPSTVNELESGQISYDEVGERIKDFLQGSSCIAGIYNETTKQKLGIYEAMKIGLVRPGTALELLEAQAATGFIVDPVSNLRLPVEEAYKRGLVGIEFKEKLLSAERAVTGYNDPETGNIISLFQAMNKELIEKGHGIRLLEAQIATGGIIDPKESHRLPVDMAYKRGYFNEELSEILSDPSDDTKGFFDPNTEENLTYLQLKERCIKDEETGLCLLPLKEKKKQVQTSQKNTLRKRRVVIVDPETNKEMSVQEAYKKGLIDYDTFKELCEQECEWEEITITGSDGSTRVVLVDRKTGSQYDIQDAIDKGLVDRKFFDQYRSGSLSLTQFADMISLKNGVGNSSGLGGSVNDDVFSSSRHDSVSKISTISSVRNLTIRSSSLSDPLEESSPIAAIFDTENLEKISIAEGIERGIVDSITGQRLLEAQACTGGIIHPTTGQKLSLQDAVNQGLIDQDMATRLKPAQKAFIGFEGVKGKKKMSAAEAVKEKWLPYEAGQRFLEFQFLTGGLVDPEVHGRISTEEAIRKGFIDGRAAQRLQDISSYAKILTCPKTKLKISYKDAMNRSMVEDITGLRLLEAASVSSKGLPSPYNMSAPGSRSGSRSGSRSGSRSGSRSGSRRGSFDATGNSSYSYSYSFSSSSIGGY
Conditions: co-precipitated protein Dsp (DESP_MOUSE). Summed up:
as §1

The target in test [4] is T4, MLO-Y4 cell surface proteins (Mus musculus, UniProt Q9D125).
T4 construct: endogenous in cells; host or cells: MLO-Y4
Conditions: co-precipitated protein Mrps25 (RT25_MOUSE). Summed up:
as §1

Test [5] has as its target T5, MLO-Y4 cell surface proteins (Mus musculus, UniProt Q791V5).
T5 construct: endogenous in cells; host or cells: MLO-Y4
T5 sequence (Q791V5 1-303): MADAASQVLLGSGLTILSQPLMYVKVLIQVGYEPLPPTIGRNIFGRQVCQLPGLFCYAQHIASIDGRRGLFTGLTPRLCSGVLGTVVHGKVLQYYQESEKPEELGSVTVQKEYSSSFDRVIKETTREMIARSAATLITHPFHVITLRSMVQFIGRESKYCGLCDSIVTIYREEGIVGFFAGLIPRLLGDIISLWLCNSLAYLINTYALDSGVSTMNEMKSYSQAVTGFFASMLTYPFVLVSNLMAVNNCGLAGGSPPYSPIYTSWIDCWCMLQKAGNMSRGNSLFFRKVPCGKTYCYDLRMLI
Conditions: co-precipitated protein Mteh2 (MTCH2_MOUSE). Summed up:
as §1

adipsin: the TMT signal-to-noise ratio in test [1] was found to be 113.461; in test [2] it was 113.564; in test [3] it was 79.7679; in test [4] it was 84.7592; in test [5], 101.527.
